Results on 8 molecules are retold here after patent US20210179726A1 (DINGFU BIOTARGET, published 2021).

As a reminder, the Kd is the constant that tells how readily two partners part at equilibrium. A high value points to weaker binding. Usually koff stands for the first-order rate constant of dissociation. A higher koff goes with a short-lived complex. A word on the kon: it is the second-order rate constant of association. Lower therefore signals slower complex formation. In general, EC50 refers to the concentration giving half of the maximal effect. Low values mean higher potency in that assay, high ones lower potency in that assay.

For assay [1], the target named is T1, hCD137-EGFP on HEK293 cells (human, UniProt Q07011 24-255).
T1 construct: EGFP fusion expressed on transfected HEK293 cells; also called human CD137
T1 sequence (Q07011 24-255): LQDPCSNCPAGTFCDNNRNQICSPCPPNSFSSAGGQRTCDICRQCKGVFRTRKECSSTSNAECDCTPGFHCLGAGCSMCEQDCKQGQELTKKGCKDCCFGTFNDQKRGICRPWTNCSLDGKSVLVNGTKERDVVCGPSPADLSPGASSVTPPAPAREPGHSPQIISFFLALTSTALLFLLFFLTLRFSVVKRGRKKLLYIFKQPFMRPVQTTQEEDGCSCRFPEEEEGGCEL
As to the kind of experiment: FACS dot plot on CD137-EGFP HEK293 cells, anti-human Ig-APC secondary. The procedure:
(§1) The hCD137-EGFP, hOX40-EGFP and hGITR-EGFP cells as described in Example 1 were washed twice in PBS, 10 μg/ml of each chimeric antibody as prepared in Example 3 (m2E7, m2B8, m4H3, m3E7, m1A8, m4G1, m2G3, m2F11 and m3B8) was added to each type of cells and incubated at 4° C. for 30 min. Then it was washed twice with PBS, anti-human Ig-APC (Jackson ImmunoResearch Laboratories, Cat #109-135-098) was added and were incubated at 4° C. for 30 min, washed twice with PBS and resuspended in 300 μl PBS. In FIG. 2, NC represents negative control (PBS), a-hlg-APC represents secondary antibody only, the other panels represent results obtained with each of the corresponding clone, respectively.

Assay [2] has as its target T2, hGITR-EGFP on HEK293 cells (human, UniProt Q9Y5U5 26-241).
T2 construct: EGFP fusion expressed on transfected HEK293 cells; also called human GITR
T2 sequence (looked up): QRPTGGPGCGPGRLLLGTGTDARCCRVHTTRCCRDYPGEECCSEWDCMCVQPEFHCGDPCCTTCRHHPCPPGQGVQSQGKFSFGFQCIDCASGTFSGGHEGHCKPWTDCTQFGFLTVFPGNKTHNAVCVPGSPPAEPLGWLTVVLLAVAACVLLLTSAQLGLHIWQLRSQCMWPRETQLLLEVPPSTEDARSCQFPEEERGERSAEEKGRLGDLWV
As to the kind of experiment: FACS on hGITR-EGFP HEK293 cells. The method, then: as §1

Assay [3] deals with T3, hOX40-EGFP on HEK293 cells (human, UniProt P43489 29-277).
T3 construct: EGFP fusion expressed on transfected HEK293 cells; also called human OX40
T3 sequence (looked up): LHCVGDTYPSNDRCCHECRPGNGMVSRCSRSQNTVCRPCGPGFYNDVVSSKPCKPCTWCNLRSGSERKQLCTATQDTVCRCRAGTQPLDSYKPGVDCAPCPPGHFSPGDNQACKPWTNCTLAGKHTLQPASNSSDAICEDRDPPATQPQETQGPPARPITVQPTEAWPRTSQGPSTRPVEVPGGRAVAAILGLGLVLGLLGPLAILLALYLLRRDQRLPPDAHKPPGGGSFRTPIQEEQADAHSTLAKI
As to the kind of experiment: FACS dot plot on OX40-EGFP HEK293 cells, anti-human Ig-APC secondary. The method, then: as §1

Assay [4] concerns the target T3, hOX40-EGFP on HEK293 cells. As to the kind of experiment: FACS on hOX40-EGFP HEK293 cells. The procedure:
as §1

Assay [5] deals with T1, hCD137-EGFP on HEK293 cells. As to the kind of experiment: FACS on hCD137-EGFP HEK293 cells. The method, then:
as §1

The target in assay [6] is T4, hCD27-muFc (human; mouse, UniProt P26842 20-192).
T4 construct: range 1-192; Secreted from HEK293, Protein A purified; not shown: mouse IgG1-Fc (muFc), residues 98 to 324 of UniProt P01868
T4 sequence (looked up): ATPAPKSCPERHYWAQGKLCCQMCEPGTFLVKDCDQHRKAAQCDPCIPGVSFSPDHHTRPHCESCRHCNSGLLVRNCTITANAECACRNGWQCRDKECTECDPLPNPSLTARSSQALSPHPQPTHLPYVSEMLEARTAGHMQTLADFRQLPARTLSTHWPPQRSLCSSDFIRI
As to the kind of experiment: BLI (Octet K2), antibody on Protein A biosensor, hCD27-muFc in solution. The method, then: Using the BLI method, each humanized antibody was immobilized on a Protein A biosensor at a concentration of 10 μg/ml, while hCD27-muFc was subjected to 2-fold serial dilution, starting from 100 nM, to obtain 5 gradient dilutions for each antibody. The reaction plate was placed on the Octet K2 instrument. The parameters were set to Baseline 70 s, Association 80 s, Dissociation 300 s, Baseline 260 s, Loading 40 s, and Custom 5 s.
Background: BLI is a label-free optical method that tracks binding on a fibre tip over time.

The target in assay [7] is T4, hCD27-muFc. As to the kind of experiment: ELISA, plate coated with hCD27-muFc, Test 2. The method, then: The ELISA plate was coated with 2 μg/ml hCD27-muFc, 100 μl/well and incubated at 4° C. overnight. Then it was washed once with 10 mM, pH 7.4 PBS/Tween (0.05%), blocked with PBST containing 5% skimmed milk powder and incubated at 37° C. for 2 h. After washing the plate for 4 times, the humanized antibodies were added and incubated at 37° C. for 40 min, then it was washed for 4 times. Anti-human IgG-HRP-conjugated secondary antibody (Sigma, Cat #A0170-1M) was added and incubated at 37° C. for 40 min. After washing, the plate was developed with TMB substrate and spectrophotometric analysis was performed at OD₄₅₀. In FIGS. 5A-5B, each curve represents the binding result obtained for one of the humanized antibodies. From the results, it can be seen that all these humanized antibodies could bind to human CD27.
On the technique in general: In an ELISA, binding on a coated surface is turned into a signal by an enzyme label.

The target of assay [8] is T5, hCD27-EGFP on HEK293 cells (human, UniProt P26842 20-260).
T5 construct: EGFP fusion expressed on transfected HEK293 cells; also called CD27-EGFP cells; cell surface CD27
T5 sequence (looked up): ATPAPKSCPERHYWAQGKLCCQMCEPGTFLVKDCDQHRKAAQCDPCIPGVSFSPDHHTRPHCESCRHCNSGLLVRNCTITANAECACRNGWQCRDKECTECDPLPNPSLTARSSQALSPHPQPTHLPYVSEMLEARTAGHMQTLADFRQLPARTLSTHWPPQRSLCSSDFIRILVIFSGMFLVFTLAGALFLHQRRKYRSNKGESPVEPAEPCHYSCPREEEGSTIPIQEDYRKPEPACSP
As to the kind of experiment: FACS titration on CD27-EGFP HEK293 cells, 8 three-fold dilutions from 20 µg/ml, anti-human Ig-APC secondary, MFI; table drawn under the plot, unit from the x axis; no upper plateau reached. The procedure: Based on the above results of ELISA, 7 humanized antibodies were selected to examine their affinities to cell surface CD27. Briefly, 5×10⁵ CD27-EGFP cells prepared in Example 1 were washed twice in PBS, each of the humanized antibodies (d16647, d12996, d9419, 14822, 9424, d14822, d12674) was added. The antibodies were subjected to 3-fold serial dilution, starting from 20 μg/ml, to obtain 8 gradient dilutions for each antibody. The antibodies and the cells were incubated at 4° C. for 30 min. Then, it was washed twice with PBS, anti-human Ig-APC (Jackson ImmunoResearch Laboratories, Cat #109-135-098) was added, and incubated at 4° C. for 30 min, washed twice with PBS and resuspended in 300 μl PBS. Flow cytometry was then performed, and the results are shown in FIG. 6. m2F11 was used as a control.

B1: m2G3 (antibody, human IgG1, V domains shown)
VH: EVKLQESGGGLVKPGGSLKLSCAASGFTFSSFAMSWIRQTPEKRLEWVAAISDGGTYTYYPNNVKGRFTISRDDAKNNLYLQMSHLKSEDTAMYYCVRNRGGPFDYWGQGTTLTVSS
VL: DIVLTQSPAIMSASPGEKVTMTCSASSSVSYMNWYQQKSGTSPKRWIYDTSKLASGVPVRFSGSGSGTSYSLTISSMEAEDAATYYCQQWNSNPPTFGAGTKLELK
notes: Chimeric antibody: mouse VH/VL on human IgG1 / human kappa constant regions; also called clone 2G3; not shown: human IgG1 constant region, UniProt P01857
Regarding B1, the binding result in assay [1], in assay [2] and in assay [3] was “no binding (tested: 10 µg/ml)” in each case.

B2: m2E7 (antibody, human IgG1, V domains shown)
VH: EVQLQESGPELKKPGETVKISCKASGYTFTTYGMSWVKQAPGKGLQWMGWINTNSGVPTYVEDFKGRFAFSLESSANTAYLQINNLKNEDTAIYFCTREGDALDYWGQGTSVTVSS
VL: DIVMTQSTAIMSASPGEKVTMTCSASSSVSYMHWYQQKSGTSPRRWIYDTSRLASGVPARFSGSGSGTSYSLTISSMEAEDAATYYCQQWSNTPPFTFGAGTKLELK
notes: also called clone 2E7; not shown: human IgG1 constant region, UniProt P01857
In the case of B2, the binding result in assay [1], in assay [2] and in assay [3] was “no binding (tested: 10 µg/ml)” throughout.

B3: m3B8 (antibody, human IgG1, V domains shown)
VH: QVQLQESGPGLVAPSQSLSITCTVSGFSLTNYAVSWVRQPPGKGLEWLGVIWGDGTTNYHSALISRLIISKDNSKSQVFLKLNSLQTDDTATYYCAKEGDYGDYVGWFAYWGQGTLVTVSA
VL: DIVLTQSPASLAVSLGQRATISCRASESVEYYGTSLMQWYQQKPGQPPKLLIYAASNVESGVPARFSGSGSGTDFSLNIHPVEEDDFAMYFCQQSRKIPYTFGGGTKLEIK
notes: Chimeric antibody: mouse VH/VL on human IgG1 / human kappa constant regions; also called clone 3B8; not shown: human IgG1 constant region, UniProt P01857
Regarding B3, the binding result in assay [1], in assay [2] and in assay [3] was “no binding (tested: 10 µg/ml)” each time.

B4: m1A8 (antibody, human IgG1, V domains shown)
VH: EVQLQESGAELVKPGASVKLSCKASGYSFTSSWMHWVKQRPGQGLEWIGMIHPDSGFTNYNEKFKSKATLTVDKSSSTAYMRLSSLTSEDSAVYYCARTSYYDTSYTSMDFWGQGNSVTVSS
VL: DIVLTQSPAILSVSPGERVSFSCRASQSIGTSIHWYQQRTNGSPRLLIKYASESISGIPSRFSGSGSGTDFTLSINSVESEDIADYYCQQSNSWPLTFGAGTKLELK
notes: Chimeric antibody: mouse VH/VL on human IgG1 / human kappa constant regions; also called clone 1A8; not shown: human IgG1 constant region, UniProt P01857
For the molecule B4, the binding result in assay [2], in assay [4] and in assay [5] was “no binding (tested: 10 µg/ml)” each time.

B5: m4G1 (antibody, human IgG1, V domains shown)
VH: QVQLQQSGPELVKPGASVKISCKASGYSFTAYNMNWVKQSKGKSLEWIGLINPNYATTSYNQKFKDKATLTVDQSSSTAYMQLNSLTSEDSAVYYCAYYSYYSYGGGYAMDYWGQGTSVTVSS
VL: DILLTQSPAILSVSPGERVSFSCRASQSIGTSIHWYQQRTNGSPRLLIKYASESISGIPSRFSGSGSGTDFILSINSVESEDIADYYCQQSNSWPWTFGGGTRLEIK
notes: Chimeric antibody: mouse VH/VL on human IgG1 / human kappa constant regions; also called clone 4G1; not shown: human IgG1 constant region, UniProt P01857
Regarding B5, the binding result in assay [2], in assay [4] and in assay [5] was “no binding (tested: 10 µg/ml)” throughout.

B6: m4H3 (antibody, human IgG1, V domains shown)
VH: QVQLQQSGPELVKPGASVKISCKASGYSFTAYNINWVKQTNGKSLEWIGIINPNYGTTSYNQKFKGKATLTVDQSSSTAYMQLNSLTSEDSAVYYCARRNGDYVGYAMDSWGQGTSVTVSS
VL: DIVLTQSPAILSVSPGERVSFSCRASQSIGTSMHWYQQRKNGSPRLLIKYASESISGIPSRFSGSGSGTDFTLSINSVESEDIADYYCQQTNNWPWTFGGGTKLEFK
notes: Chimeric antibody: mouse VH/VL on human IgG1 / human kappa constant regions; also called clone 4H3; not shown: human IgG1 constant region, UniProt P01857
In the case of B6, the binding result in assay [2], in assay [4] and in assay [5] was “no binding (tested: 10 µg/ml)” each time.

B7: d14822 (antibody, human IgG1, V domains shown, not shown: a dimerising Fc or GST)
VH: EVHLQESGGGLVKPGGSLRLSCAASGFTFSSYAMSWVRQTPDKGLEWVAIIGDGDTYTYYPDSVKGRFTISRDNSKNTLYLQMNDLKSEDTAMYYCVRTRGGPFDYWGQGTTLTVSS
VL: EILLTQSPAFMSATPGEKVTITCSASSSVGSMHWYQQKSGQSPRRLIYDTSKLASGVPDRFSGSGSGTDYTLTISSLEAEDAATYYCQQWSSIPPTFGAGTTLELK
notes: Humanized m2F11, human IgG1 / kappa
On to B7, for which, in assay [6], the Kd amounted to 4.27 nM, the koff came out at 0.000334 s⁻¹ and the kon is 78200 M⁻¹ s⁻¹. The same molecule returned a concentration for a half-maximal effect (EC50) in assay [7] of 0.0339 µg/mL. In addition, the LogEC50 in assay [8] was 0.373 Log10(ug/ml).

B8: m2B8 (antibody, human IgG1, V domains shown)
VH: EVQLQESGGGLVQPKGSLKLSCAASGFNFNTYTMNWVRQAPGKGLEWVARIRYKSNNYATYYADSVKDRFTISRDDSESILYLQMNNLRTDDTAIYFCVRELGLWYFDVWGAGTTVTVSS
VL: DIVMTQSPSYLAASPGETITINCRASKSISKYLAWYREKPGKTNNLLIYSGSTLQSGIPSRFSGSGSGTDFTLTISSLEPEDFAMYYCQQHNEYPLTFGAGTKLELK
notes: Chimeric antibody: mouse VH/VL on human IgG1 / human kappa constant regions; also called clone 2B8; not shown: human IgG1 constant region, UniProt P01857
Regarding B8, the binding result in assay [2], in assay [4] and in assay [5] was “no binding (tested: 10 µg/ml)” throughout.
